Patent US20240076360A1 (University of Pennsylvania, published 2024)

Experiments:
cynomolgus monkey C5 = target: T1, cynomolgus monkey C5 (cynomolgus monkey); assay: ELISA, recombinant C5 coated at 3 µg/ml, serially diluted antibody, HRP anti-IgG4 Fc detection
T1 construct: also called cyno C5; cyno monkey C5
Method: (§1) ELISA wells were coated with recombinant C5 protein of relevant species (3 μg/ml in coating buffer, 100 μl/well, 4° C. overnight). […] Sheep RBC lysis assay was performed as described in Example 3, using 5-20% cynomolgus monkey serum.

mouse C5 = target: T2, mouse C5 (mouse, UniProt P06684 19-1680, limits assumed); assay: ELISA, wells coated with recombinant C5 (3 ug/ml), serially diluted antibody, detection with HRP anti-IgG4 Fc, OD450
T2 construct: also called recombinant mouse C5 protein
T2 sequence (P06684 19-1680 limits assumed): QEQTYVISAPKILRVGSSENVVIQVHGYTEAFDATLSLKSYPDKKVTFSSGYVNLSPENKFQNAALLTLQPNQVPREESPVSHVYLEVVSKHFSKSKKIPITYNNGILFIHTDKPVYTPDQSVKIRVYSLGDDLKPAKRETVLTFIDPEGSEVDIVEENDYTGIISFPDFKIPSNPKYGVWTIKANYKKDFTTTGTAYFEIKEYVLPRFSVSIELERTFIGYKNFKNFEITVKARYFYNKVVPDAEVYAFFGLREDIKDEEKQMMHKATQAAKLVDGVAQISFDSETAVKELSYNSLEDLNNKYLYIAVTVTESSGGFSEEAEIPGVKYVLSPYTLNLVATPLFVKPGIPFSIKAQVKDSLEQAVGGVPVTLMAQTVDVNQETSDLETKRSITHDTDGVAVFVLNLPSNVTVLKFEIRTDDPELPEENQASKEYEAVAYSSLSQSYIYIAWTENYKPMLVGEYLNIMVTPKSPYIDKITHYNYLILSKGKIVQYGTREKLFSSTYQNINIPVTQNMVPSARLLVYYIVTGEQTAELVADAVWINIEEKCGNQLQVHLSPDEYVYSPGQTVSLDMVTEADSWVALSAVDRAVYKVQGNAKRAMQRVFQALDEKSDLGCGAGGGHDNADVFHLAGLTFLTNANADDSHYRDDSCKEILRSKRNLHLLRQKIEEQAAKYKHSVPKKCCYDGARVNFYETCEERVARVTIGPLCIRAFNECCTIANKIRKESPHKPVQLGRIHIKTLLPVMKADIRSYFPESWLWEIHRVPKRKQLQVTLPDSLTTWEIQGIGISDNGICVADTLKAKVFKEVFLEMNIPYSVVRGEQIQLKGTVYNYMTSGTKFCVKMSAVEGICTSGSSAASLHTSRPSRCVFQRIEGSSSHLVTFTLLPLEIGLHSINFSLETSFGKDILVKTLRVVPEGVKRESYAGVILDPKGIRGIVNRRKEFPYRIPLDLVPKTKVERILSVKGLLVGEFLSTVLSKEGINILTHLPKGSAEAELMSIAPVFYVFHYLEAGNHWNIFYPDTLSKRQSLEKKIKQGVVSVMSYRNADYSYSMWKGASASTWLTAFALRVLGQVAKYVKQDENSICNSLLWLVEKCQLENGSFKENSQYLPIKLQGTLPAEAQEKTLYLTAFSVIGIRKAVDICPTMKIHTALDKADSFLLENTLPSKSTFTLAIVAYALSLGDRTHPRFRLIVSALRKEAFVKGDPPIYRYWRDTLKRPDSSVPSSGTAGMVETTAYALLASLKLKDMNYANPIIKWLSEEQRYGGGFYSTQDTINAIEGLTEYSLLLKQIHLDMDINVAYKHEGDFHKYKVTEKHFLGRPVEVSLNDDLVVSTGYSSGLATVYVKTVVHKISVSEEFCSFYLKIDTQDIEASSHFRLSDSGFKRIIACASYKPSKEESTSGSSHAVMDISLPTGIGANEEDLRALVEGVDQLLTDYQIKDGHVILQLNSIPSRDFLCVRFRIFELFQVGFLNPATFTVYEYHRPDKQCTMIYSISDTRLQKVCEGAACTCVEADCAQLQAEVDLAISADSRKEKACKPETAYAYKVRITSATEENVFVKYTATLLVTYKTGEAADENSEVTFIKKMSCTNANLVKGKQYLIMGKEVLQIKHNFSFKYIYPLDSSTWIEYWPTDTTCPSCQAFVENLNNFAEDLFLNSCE
Method: as §1

rat C5 = target: T3, rat C5 (rat, UniProt P08650 19-1681, limits assumed); assay: as above
T3 construct: also called recombinant rat C5 protein
T3 sequence (P08650 19-1681 limits assumed): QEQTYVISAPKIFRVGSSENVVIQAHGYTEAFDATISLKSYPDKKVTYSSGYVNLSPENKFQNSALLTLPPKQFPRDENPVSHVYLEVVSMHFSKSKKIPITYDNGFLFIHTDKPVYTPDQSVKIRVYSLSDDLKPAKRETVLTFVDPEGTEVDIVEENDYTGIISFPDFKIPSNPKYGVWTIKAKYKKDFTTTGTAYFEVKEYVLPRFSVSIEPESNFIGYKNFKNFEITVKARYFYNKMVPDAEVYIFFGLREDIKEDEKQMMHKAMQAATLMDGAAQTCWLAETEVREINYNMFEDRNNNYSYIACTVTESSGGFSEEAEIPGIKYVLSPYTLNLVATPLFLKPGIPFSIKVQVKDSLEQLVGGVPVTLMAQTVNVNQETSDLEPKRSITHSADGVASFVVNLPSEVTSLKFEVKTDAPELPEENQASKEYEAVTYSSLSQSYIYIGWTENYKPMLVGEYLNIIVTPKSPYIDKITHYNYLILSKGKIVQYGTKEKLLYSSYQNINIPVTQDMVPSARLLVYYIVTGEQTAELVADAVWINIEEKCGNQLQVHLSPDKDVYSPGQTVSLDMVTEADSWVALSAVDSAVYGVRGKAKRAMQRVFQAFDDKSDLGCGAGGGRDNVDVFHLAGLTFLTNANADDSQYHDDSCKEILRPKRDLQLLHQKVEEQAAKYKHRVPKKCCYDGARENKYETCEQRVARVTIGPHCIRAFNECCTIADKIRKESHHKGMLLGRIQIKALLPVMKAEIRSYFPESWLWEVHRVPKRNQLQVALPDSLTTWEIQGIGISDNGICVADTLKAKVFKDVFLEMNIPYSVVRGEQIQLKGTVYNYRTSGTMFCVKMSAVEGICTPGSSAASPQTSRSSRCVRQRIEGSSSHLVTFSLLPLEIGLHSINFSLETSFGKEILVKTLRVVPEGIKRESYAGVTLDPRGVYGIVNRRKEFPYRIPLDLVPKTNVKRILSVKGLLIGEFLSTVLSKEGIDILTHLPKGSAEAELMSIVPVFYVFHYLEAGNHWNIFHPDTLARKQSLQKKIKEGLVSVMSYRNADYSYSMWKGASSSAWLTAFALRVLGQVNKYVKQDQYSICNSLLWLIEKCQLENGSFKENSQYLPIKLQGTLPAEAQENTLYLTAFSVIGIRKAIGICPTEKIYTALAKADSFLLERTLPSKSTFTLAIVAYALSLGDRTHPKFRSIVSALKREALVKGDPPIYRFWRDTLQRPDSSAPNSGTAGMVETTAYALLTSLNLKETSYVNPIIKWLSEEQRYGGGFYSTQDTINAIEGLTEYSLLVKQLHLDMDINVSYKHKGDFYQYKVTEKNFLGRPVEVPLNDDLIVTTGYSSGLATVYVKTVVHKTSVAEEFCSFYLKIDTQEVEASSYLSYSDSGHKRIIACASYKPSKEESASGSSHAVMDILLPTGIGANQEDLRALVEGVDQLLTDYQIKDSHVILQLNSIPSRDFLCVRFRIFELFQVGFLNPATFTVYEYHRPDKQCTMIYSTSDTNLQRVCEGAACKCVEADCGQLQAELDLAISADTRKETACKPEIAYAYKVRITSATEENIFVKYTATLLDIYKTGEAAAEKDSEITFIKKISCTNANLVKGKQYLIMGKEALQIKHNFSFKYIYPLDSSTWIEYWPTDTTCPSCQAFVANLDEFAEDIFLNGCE
Method: as §1

rabbit C5 = target: T4, rabbit C5 (rabbit, UniProt G1SPF9 19-673; G1SPF9 678-1675); assay: as above
T4 construct: also called recombinant rabbit C5 protein
T4 sequence (beta, as listed by the source limits assumed, chain 1 of 2): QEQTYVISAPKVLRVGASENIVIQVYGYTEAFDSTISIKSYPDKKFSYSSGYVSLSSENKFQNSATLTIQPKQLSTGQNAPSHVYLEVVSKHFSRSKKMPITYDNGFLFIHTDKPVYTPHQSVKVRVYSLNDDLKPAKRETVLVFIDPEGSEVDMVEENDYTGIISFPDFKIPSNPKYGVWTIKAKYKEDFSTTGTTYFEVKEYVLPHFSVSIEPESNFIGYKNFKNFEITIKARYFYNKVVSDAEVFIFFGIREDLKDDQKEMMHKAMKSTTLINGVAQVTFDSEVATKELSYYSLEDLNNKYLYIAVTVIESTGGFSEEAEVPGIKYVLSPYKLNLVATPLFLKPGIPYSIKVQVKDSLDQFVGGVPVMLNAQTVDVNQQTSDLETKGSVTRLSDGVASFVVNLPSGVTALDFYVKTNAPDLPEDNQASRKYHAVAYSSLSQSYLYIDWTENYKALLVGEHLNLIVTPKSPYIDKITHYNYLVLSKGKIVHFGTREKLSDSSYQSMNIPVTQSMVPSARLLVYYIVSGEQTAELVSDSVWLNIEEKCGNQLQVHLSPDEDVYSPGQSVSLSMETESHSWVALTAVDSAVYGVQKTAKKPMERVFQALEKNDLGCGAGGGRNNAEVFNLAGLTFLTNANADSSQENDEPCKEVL
T4 sequence (alpha, as listed by the source limits assumed, chain 2 of 2): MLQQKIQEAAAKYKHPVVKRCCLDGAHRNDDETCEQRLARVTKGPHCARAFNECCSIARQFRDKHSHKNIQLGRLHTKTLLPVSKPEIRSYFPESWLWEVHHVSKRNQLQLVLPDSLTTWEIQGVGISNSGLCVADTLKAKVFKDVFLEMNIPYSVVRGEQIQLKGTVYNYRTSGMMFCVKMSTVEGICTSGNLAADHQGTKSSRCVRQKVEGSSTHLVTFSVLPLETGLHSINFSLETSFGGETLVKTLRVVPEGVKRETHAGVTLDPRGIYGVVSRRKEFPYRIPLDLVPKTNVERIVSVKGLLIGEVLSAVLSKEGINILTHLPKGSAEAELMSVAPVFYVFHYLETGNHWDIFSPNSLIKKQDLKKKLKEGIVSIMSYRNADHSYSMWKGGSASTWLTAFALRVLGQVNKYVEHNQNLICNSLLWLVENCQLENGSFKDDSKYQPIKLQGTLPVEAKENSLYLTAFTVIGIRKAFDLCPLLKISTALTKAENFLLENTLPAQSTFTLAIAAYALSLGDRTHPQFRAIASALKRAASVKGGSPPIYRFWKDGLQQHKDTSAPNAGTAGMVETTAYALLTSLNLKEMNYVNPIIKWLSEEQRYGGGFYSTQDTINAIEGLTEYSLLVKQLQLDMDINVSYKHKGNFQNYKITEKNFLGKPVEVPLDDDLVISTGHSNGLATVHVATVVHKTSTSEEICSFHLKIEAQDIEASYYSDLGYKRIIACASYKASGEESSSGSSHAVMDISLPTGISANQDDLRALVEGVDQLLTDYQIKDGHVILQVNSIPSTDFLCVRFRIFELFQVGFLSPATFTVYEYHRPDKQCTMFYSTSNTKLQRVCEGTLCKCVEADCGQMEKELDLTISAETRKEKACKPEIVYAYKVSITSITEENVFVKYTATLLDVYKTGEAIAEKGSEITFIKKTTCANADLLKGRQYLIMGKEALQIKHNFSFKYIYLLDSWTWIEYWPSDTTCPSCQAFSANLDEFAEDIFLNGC
Method: as §1

EC50 (cynomolgus monkey C5): ~0.2 µg/mL
binding result (mouse C5): no binding
binding result (rat C5): no binding
binding result (rabbit C5): no binding
B1: Y32H/Q38R/L54H anti-C5 mAb (antibody, human IgG4 S228P, V domains shown)
VH: QVQLVQSGAEVKKPGASVKVSCKASGYIFSNHWIQWVRQAPGQGLEWMGEILPGSGSTEYTENFKDRVTMTRDTSTSTVYMELSSLRSEDTAVYYCARYFFGSSPNWYFDVWGQGTLVTVSS
VL: DIQMTQSPSSLSASVGDRVTITCGASENIYGALNWYQRKPGKAPKLLIYGATNHADGVPSRFSGSGSGTDFTLTISSLQPEDFATYYCQNVLNTPLTFGQGTKVEIK
